This test deals with double-domain activation-associated secreted protein (ASP) (Cooperia oncophora (endogenous in adult worms)). Briefly: reducing against non-reducing SDS-PAGE, bands identified by MALDI-TOF MS.

Take “double-domain activation-associated secreted protein (ASP) (natural protein)”: the stoichiometry N worked out at 2.

These data come from publication PMC3883574.
